B1: mRNA-splicing (parent)
chain: AGUUGCUGCUGGGAGCUCCAGCACAGUGAAAUGGACAGAAGGGCAGAGCAA

Variants of: B1
Test: exon inclusion enrichment index; higher = more inclusion; WT1 exon 5 minigene, HEK293

| Variant | exon inclusion enrichment index |
| --- | --- |
| AGUUAGGGAUGGGAGCUCCGACACAGUGAAAUGGACAGAAGGGCAGAGCAA [G5A C6G U7G C9A A20G G21A] | 0.00277 |
| AGUUAGGGAUGGGAGCUCCGCCACAGUGAAAUGGACAGAAGGGCAGAGCAA [G5A C6G U7G C9A A20G G21C] | 0.00328 |
| AGUUAGGGAUGGGAGCUCCGUCACAGUGAAAUGGACAGAAGGGCAGAGCAA [G5A C6G U7G C9A A20G G21U] | 0.00168 |
| AGUUAGGGAUGGGAGCUCCUACACAGUGAAAUGGACAGAAGGGCAGAGCAA [G5A C6G U7G C9A A20U G21A] | 0.000815 |
| AGUUAGGGAUGGGAGCUCCUUCACAGUGAAAUGGACAGAAGGGCAGAGCAA [G5A C6G U7G C9A A20U G21U] | 0.000871 |
| AGUUAGGGAUGGGAGCUCCUCCACAGUGAAAUGGACAGAAGGGCAGAGCAA [G5A C6G U7G C9A A20U G21C] | 0.00185 |
| AGUUAGGGCUGGGAGCUCCAGCACAGUGAAAUGGACAGAAGGGCAGAGCAA [G5A C6G U7G] | 0.00284 |
| AGUGUCUUUUGGGAGCUCCAGCACAGUGAAAUGGACAGAAGGGCAGAGCAA [U4G G5U G8U C9U] | 0.267 |
| AGUUAGCGACGGGAGCUCCAGCACAGUGAAAUGGACAGAAGGGCAGAGCAA [G5A C6G U7C C9A U10C] | 0.602 |
| AGUUAGACAUGGGAGCUCCAGCACAGUGAAAUGGACAGAAGGGCAGAGCAA [G5A C6G U7A G8C C9A] | 0.0442 |
| AGUGCCUUUUGGGAGCUCCAGCACAGUGAAAUGGACAGAAGGGCAGAGCAA [U4G G5C G8U C9U] | 0.642 |
| AGUUAACGAUGGGAGCUCCAGCACAGUGAAAUGGACAGAAGGGCAGAGCAA [G5A C6A U7C C9A] | 0.838 |
| AGUUAAAUAUGGGAGCUCCAGCACAGUGAAAUGGACAGAAGGGCAGAGCAA [G5A C6A U7A G8U C9A] | 0.0639 |
| AGUUAGAAAUGGGAGCUCCAGCACAGUGAAAUGGACAGAAGGGCAGAGCAA [G5A C6G U7A G8A C9A] | 0.0263 |
| AGUGCACACAGGGAGCUCCAGCACAGUGAAAUGGACAGAAGGGCAGAGCAA [U4G G5C C6A U7C G8A U10A] | 0.0964 |
| AGUUAAUACCGGGAGCUCCAGCACAGUGAAAUGGACAGAAGGGCAGAGCAA [G5A C6A G8A U10C] | 0.811 |
| AGUUAAGGAUGGGAGCUCCAGCACAGUGAAAUGGACAGAAGGGCAGAGCAA [G5A C6A U7G C9A] | 0.107 |
| AGUGUGGGAUGGGAGCUCCAGCACAGUGAAAUGGACAGAAGGGCAGAGCAA [U4G G5U C6G U7G C9A] | 0.0442 |
| AGUUAGGGAUGGGAGCUCCCACACAGUGAAAUGGACAGAAGGGCAGAGCAA [G5A C6G U7G C9A A20C G21A] | 0.00106 |
| AGUUAGGGAUGGGAGCUCCCUCACAGUGAAAUGGACAGAAGGGCAGAGCAA [G5A C6G U7G C9A A20C G21U] | 0.00104 |
| AGUUAGGGAUGGGAGCUCCCCCACAGUGAAAUGGACAGAAGGGCAGAGCAA [G5A C6G U7G C9A A20C G21C] | 0.000907 |
| AGUUAGAGAAGGGAGCUCCAGCACAGUGAAAUGGACAGAAGGGCAGAGCAA [G5A C6G U7A C9A U10A] | 0.0116 |
| AGUUAGCACCGGGAGCUCCAGCACAGUGAAAUGGACAGAAGGGCAGAGCAA [G5A C6G U7C G8A U10C] | 0.446 |
| AGUUAGCACAGGGAGCUCCAGCACAGUGAAAUGGACAGAAGGGCAGAGCAA [G5A C6G U7C G8A U10A] | 0.00406 |
| AGUGAUAUAUGGGAGCUCCAGCACAGUGAAAUGGACAGAAGGGCAGAGCAA [U4G G5A C6U U7A G8U C9A] | 0.156 |
| AGUUAGCGCCGGGAGCUCCAGCACAGUGAAAUGGACAGAAGGGCAGAGCAA [G5A C6G U7C U10C] | 0.952 |

| Variant | exon inclusion enrichment index |
| --- | --- |
| AGUUAACGCCGGGAGCUCCAGCACAGUGAAAUGGACAGAAGGGCAGAGCAA [G5A C6A U7C U10C] | 2.4 |
| AGUGUACGACGGGAGCUCCAGCACAGUGAAAUGGACAGAAGGGCAGAGCAA [U4G G5U C6A U7C C9A U10C] | 2.56 |
| AGUUAGGGAUGGGAGCUCCCGCACAGUGAAAUGGACAGAAGGGCAGAGCAA [G5A C6G U7G C9A A20C] | 0.00932 |
| AGUUAGGGAUGGGAGCUCCUGCACAGUGAAAUGGACAGAAGGGCAGAGCAA [G5A C6G U7G C9A A20U] | 0.00146 |
| AGUUAGGGAUGGGAGCUCCGGCACAGUGAAAUGGACAGAAGGGCAGAGCAA [G5A C6G U7G C9A A20G] | 0.00245 |
| AGUUAGGGAUGGGGGCUCCAGCACAGUGAAAUGGACAGAAGGGCAGAGCAA [G5A C6G U7G C9A A14G] | 0.00241 |
| AGUUAGGGAUGGGCGCUCCAGCACAGUGAAAUGGACAGAAGGGCAGAGCAA [G5A C6G U7G C9A A14C] | 0.000759 |
| AGUUAGGGAUGGGUGCUCCAGCACAGUGAAAUGGACAGAAGGGCAGAGCAA [G5A C6G U7G C9A A14U] | 0.000641 |
| AGUUAGCAAUGGGAGCUCCAGCACAGUGAAAUGGACAGAAGGGCAGAGCAA [G5A C6G U7C G8A C9A] | 0.0448 |
| AGUUAGGGAUGGGAGCUCCAGCCCAGUGAAAUGGACAGAAGGGCAGAGCAA [G5A C6G U7G C9A A23C] | 0.00491 |
| AGUUAGGGAUGGGAGCUCCAGCGCAGUGAAAUGGACAGAAGGGCAGAGCAA [G5A C6G U7G C9A A23G] | 0.00235 |
| AGUUAGCCAUGGGAGCUCCAGCACAGUGAAAUGGACAGAAGGGCAGAGCAA [G5A C6G U7C G8C C9A] | 0.0805 |
| AGUUAGGGAUGGGGCCUCCAGCACAGUGAAAUGGACAGAAGGGCAGAGCAA [G5A C6G U7G C9A A14G G15C] | 0.00222 |
| AGUUAGGGAUGGGGACUCCAGCACAGUGAAAUGGACAGAAGGGCAGAGCAA [G5A C6G U7G C9A A14G G15A] | 0.00342 |
| AGUUAGGGAUGGGGUCUCCAGCACAGUGAAAUGGACAGAAGGGCAGAGCAA [G5A C6G U7G C9A A14G G15U] | 0.00301 |
| AGUUAAAGAAGGGAGCUCCAGCACAGUGAAAUGGACAGAAGGGCAGAGCAA [G5A C6A U7A C9A U10A] | 0.214 |
| AGUGCACGACGGGAGCUCCAGCACAGUGAAAUGGACAGAAGGGCAGAGCAA [U4G G5C C6A U7C C9A U10C] | 2.46 |
| AGUGCGGGAUGGGAGCUCCAGCACAGUGAAAUGGACAGAAGGGCAGAGCAA [U4G G5C C6G U7G C9A] | 0.248 |
| AGUUAGUACCGGGAGCUCCAGCACAGUGAAAUGGACAGAAGGGCAGAGCAA [G5A C6G G8A U10C] | 0.184 |
| AGUUAGGGAUGGGAGCUCCAGCGAAGUGAAAUGGACAGAAGGGCAGAGCAA [G5A C6G U7G C9A A23G C24A] | 0.00158 |
| AGUUAGGGAUGGGAGCUCCAGCGGAGUGAAAUGGACAGAAGGGCAGAGCAA [G5A C6G U7G C9A A23G C24G] | 0.0109 |
| AGUUAGGGAUGGGAGCUCCAGCGUAGUGAAAUGGACAGAAGGGCAGAGCAA [G5A C6G U7G C9A A23G C24U] | 0.000891 |
| AGUUAGGGAUGGGUUCUCCAGCACAGUGAAAUGGACAGAAGGGCAGAGCAA [G5A C6G U7G C9A A14U G15U] | 0.000762 |
| AGUUAGGGAUGGGUACUCCAGCACAGUGAAAUGGACAGAAGGGCAGAGCAA [G5A C6G U7G C9A A14U G15A] | 0.000793 |
| AGUUAGGGAUGGGUCCUCCAGCACAGUGAAAUGGACAGAAGGGCAGAGCAA [G5A C6G U7G C9A A14U G15C] | 0.00121 |
